# Test results reported in PMC10154233, “Structure, sequon recognition and mechanism of tryptophan C-mannosyltransferase” (Nature Chemical Biology, 2023).
# Square brackets hold non-standard residues; d marks the D form. Pra = C#CC[C@H](N)C(=O)O
# T1: C. elegans DPY19 (CeDPY19), tryptophan C-mannosyltransferase, with a C-terminal FLAG3 tag (C. elegans, UniProt P34413 1-683)
# T1 construct: C. elegans DPY19 (CeDPY19), synthetic gene construct; Eluted from the FLAG gel with FLAG peptide; no cleavage of the tag is described; also called CMT
# T1 sequence: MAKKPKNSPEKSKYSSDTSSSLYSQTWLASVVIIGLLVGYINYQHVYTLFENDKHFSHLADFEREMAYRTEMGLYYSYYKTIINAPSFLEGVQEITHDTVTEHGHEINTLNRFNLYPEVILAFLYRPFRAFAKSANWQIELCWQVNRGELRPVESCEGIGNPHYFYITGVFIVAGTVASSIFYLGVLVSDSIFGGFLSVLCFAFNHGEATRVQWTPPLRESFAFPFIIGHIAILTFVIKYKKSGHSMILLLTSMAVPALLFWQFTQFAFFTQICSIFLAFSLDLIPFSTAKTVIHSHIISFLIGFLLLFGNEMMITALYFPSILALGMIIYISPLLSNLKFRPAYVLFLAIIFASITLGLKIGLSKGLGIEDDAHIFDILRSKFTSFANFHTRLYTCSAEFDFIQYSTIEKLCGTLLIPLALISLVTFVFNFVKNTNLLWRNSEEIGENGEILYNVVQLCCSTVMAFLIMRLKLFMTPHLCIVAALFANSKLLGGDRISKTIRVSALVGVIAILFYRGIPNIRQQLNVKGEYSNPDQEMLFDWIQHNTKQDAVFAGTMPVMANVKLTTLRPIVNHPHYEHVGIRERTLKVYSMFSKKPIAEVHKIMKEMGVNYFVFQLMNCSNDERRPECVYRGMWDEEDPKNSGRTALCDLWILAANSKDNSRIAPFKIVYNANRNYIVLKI
# B1: CMT2-Fab, synthetic Fab selected by phage display against CeDPY19 (Fab, V domains shown)
# VH: EVQLVESGGGLVQPGGSLRLSCAASGFNISSSSIHWVRQAPGKGLEWVASISSSYGYTSYADSVKGRFTISADTSKNTAYLQMNSLRAEDTAVYYCARSSSVYWSWWGYSAFDYWGQGTLVTVSS
# VL: DIQMTQSPSSLSASVGDRVTITCRASQSVSSAVAWYQQKPGKAPKLLIYSASSLYSGVPSRFSGSRSGTDFTLTISSLQPEDFATYYCQQGASEPITFGQGTKVEIK
# notes: source: E. coli C43 (Pro+), purified (Protein L, Resource S)
# B2: Synthetic acceptor octapeptide WEHI-1886493 (Ac-Pra-GSWAKWS-NH2) (peptide)
# peptide: Ac-[Pra]GSWAKWS-NH2
# SMILES: C#CC[C@H](NC(C)=O)C(=O)NCC(=O)N[C@@H](CO)C(=O)N[C@@H](Cc1c[nH]c2ccccc12)C(=O)N[C@@H](C)C(=O)N[C@@H](CCCCN)C(=O)N[C@@H](Cc1c[nH]c2ccccc12)C(=O)N[C@@H](CO)C(N)=O
# notes: Eight residues in all: Pra (propargylglycine) followed by GSWAKWS; also called acceptor peptide; source: synthetic peptide
# Columns and labels:
# [1] = target: T2, Biotinylated C. elegans DPY19 (CeDPY19) with a C-terminal Avitag (Caenorhabditis elegans (strain not …, UniProt P34413, biotin (enzymatic, BirA) on the Avitag)); assay: ELISA; multipoint protein ELISA; 30 nM biotinylated CeDPY19 immobilised on a neutravidin-coated plate, threefold serial dilutions of purified Fab from 4 uM, 20 min, 4 °C; 20 mM HEPES pH 7.4, 150 mM NaCl, 0.01% LMNG, 0.001% CHS, 0.5% BSA; detected with HRP-protein L; details: both partners purified
# T2 construct: C. elegans DPY19 (CeDPY19); also called biotinylated CeDPY19; target; not shown: Avitag, C-terminal, kept
# [2] = target: T1, C. elegans DPY19 (CeDPY19), tryptophan …; assay: cryo-EM structure; CeDPY19-CMT2-Fab-anti-Fab Nb complex (35 uM) with 1 mM acceptor peptide WEHI-1886493, 1-2 h on ice; details: both partners purified
Binder,EC50 [1] [nM],binding result [2]
B1,17,–
B2,–,binds
